Measurements from publication doi:10.1101/2021.09.03.458882 (bioRxiv, 2021).

Molecular target: the molecule itself
Test: FRET or BRET

B1: Glucose oxidase (from Aspergillus niger) (enzyme, UniProt P13006 17-605, looked up)
chain: LPHYIRSNGIEASLLTDPKDVSGRTVDYIIAGGGLTGLTTAARLTENPNISVLVIESGSYESDRGPIIEDLNAYGDIFGSSVDHAYETVELATNNQTALIRSGNGLGGSTLVNGGTWTRPHKAQVDSWETVFGNEGWNWDNVAAYSLQAERARAPNAKQIAAGHYFNASCHGVNGTVHAGPRDTGDDYSPIVKALMSAVEDRGVPTKKDFGCGDPHGVSMFPNTLHEDQVRSDAAREWLLPNYQRPNLQVLTGQYVGKVLLSQNGTTPRAVGVEFGTHKGNTHNVYAKHEVLLAAGSAVSPTILEYSGIGMKSILEPLGIDTVVDLPVGLNLQDQTTATVRSRITSAGAGQGQAAWFATFNETFGDYSEKAHELLNTKLEQWAEEAVARGGFHNTTALLIQYENYRDWIVNHNVAYSELFLDTAGVASFDVWDLLPFTRGYVHILDKDPYLHHFAYDPQYFLNELDLLGQAAATQLARNISNSGAMQTYFAGETIPGDNLAYDADLSAWTEYIPYHFRPNYHGVGTCSMMPKEMGGVVDNAARVYGVQGLRVIDGSIPPTQMSSHVMTVFYAMALKISDAILEDYASMQ
modifications: amine reactive dye Alexa Fluor 488 on one population and Alexa Fluor 532 on the other
- binding result: binds
